Data from PMC11886768 (2025).

Key:
E-COP1 = E-COP1 (UniProt P43254); assay: mammalian three-hybrid (M3H) assay, GFP co-expressed as control third protein; conditions: CHO-K1 cells, 24 h, parent: est. 150, read off a plot
AD-COP1 = AD-COP1 (UniProt P43254); assay: yeast three-hybrid (Y3H) competition assay (BD-HY5, AD-COP1); conditions: read off a plot
Sequence of AD-COP1 (P43254 whole entry): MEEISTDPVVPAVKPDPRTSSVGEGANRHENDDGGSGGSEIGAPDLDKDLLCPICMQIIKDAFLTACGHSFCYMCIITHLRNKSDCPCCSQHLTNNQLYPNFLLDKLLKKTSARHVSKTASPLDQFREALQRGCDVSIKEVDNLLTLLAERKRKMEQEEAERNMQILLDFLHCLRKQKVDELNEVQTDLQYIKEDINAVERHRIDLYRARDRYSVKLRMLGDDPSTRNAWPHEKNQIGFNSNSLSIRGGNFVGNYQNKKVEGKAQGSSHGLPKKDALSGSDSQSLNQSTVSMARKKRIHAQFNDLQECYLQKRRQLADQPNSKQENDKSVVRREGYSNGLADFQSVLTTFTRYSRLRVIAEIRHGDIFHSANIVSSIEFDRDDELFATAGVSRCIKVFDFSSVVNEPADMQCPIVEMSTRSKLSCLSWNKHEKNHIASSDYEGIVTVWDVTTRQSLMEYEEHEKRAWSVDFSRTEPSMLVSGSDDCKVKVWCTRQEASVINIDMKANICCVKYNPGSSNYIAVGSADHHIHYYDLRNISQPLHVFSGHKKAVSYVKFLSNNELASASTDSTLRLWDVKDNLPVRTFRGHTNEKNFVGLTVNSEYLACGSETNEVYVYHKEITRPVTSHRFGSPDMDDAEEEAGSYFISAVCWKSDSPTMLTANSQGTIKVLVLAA

Sequence of E-COP1 (P43254 whole entry): as above

| Substance | response (Au (SEAP/sNLuc)) (E-COP1; blue light (10 μmol m−2 s−1)) | response (Au (SEAP/sNLuc)) (E-COP1; darkness) | other: COP1-HY5 interaction signal (β-galactosidase activity) with the CCT1 variant as bridge protein (AD-COP1; 1 day in darkness, followed by exposure to 50 μmol m−2 s−1 blue light for 1 day, no-bridge control est. 5.7, higher signal = less displacement of HY5 by the …, parent: est. 1.7) | other: COP1-HY5 interaction signal (β-galactosidase activity) with the CCT1 variant as bridge protein (AD-COP1; darkness for 2 days, no-bridge control est. 8.5, higher signal = less displacement of HY5 by the CCT1 variant, parent: est. 3.1) |
| --- | --- | --- | --- | --- |
| HY5 fused to the herpes simplex virus-derived transactivation domain (VP16) (from UniProt O24646) HY5-VPAA (VP motif to AA; positions not printed) | 7 | 5 | – | – |
| CCT1 (yeast three-hybrid 'bridge protein') V548A; P549A | – | – | 6.9 Miller units | 7.8 Miller units |
